Measured values as given in US7585638B2, “Test system for measuring the interaction of STAT 6 with NCoA-1” (Boehringer Ingelheim International GmbH, priority 2001, dated 2009).

B1: His-NCoA-1: His-tagged NCoA-1 fragment aa 212-463, expressed in E. coli, affinity purified, SEQ ID NO: 3 (protein)
chain: MHHHHHHSSGLVPRGSGMKETAAAKFERQHMDSPDLGTDDDDKAMGYLWIQEACQRYEVMQCFTVSQPKSIQEDGEDFQSCLICIARRLPRPPAITGVESFMTKQDTTGKIISIDTSSLRAAGRTGWEDLVRKCIYAFFQPQGREPSYARQLFQEVMTRGTASSPSYRFILNDGTMLSAHTKCKLCYPQSPDMQPFIMGIHIIDREHSGLSPQDDSNSGMSIPRINPSVNPGISPAHGVTRSSTLPPSNNNMVSARVNRQQSSDLNSSSSHTNSSNNQGNFGCSPGNQIVANVALNQGQAGSLEHHHHHH
modifications: His tag

Experiments:
[1] = target: T1, interaction of STAT6 and NCoA-1 (Mus musculus, UniProt P70365); assay: GST pull-down assay of [35S]-labeled NCoA-1 with GST-STAT6-TAD in presence of peptides; format: binding, human; settings: 100 μg peptide; 4 μg GST-STAT6-TAD; SDS-PAGE and fluorography
T1 construct: made in house; host or cells: E. coli for GST-STAT6-TAD
Protocol: 4 μg GST or GST-STAT6-TAD fusion protein purified from E. coli, are bound to 20 μl glutathione-Sepharose and are incubated with 1.5 μl [^35S]-labeled NCoA-1 in the presence of 100 μg peptide 1, or peptide 2, or peptide 3 respectively, as indicated. Material bound to the glutathione-Sepharose is recovered from the binding reaction, extensively washed and analyzed by SDS-PAGE and fluorography (lanes 2-6). Input control in lane 1 reflects 10% of the total amount of ^35S-labeled NCoA-1 used in the experiments.

GST-STAT6 (aa 677-847) = target: T2, GST-STAT6 (aa 677-847) (Homo sapiens, UniProt P42226); assay: STAT6/NCoA-1-ELISA (His-NCoA-1 bound to coated GST-STAT6); format: binding; settings: 500 ng GST-STAT6 (677-847) coated, 250 ng His-NCoA-1 (212-463) added; α-Penta-His and α-mouse-HRP; average of three experiments
T2 construct: made in house; host or cells: E. coli
Protocol: The following is an illustration of how an interaction of STAT6 with NCoA-1 can be performed in order to identify a substance which can modulate said interaction.
Substrate solution: dissolve a phosphate citrate buffer tablet (Sigma) in 100 ml water to obtain 0.05 M phosphate citrate buffer pH 5.5. Dissolve a tablet of o-Phenylendiamine dihydrochloride (Sigma) in 30 ml of phosphate citrate buffer in the dark. Prior to use add 30 μl of 30% H2O2. Recombinant Proteins: GST-STAT6 aa 677-847 and His-tagged NCoA-1 aa 212-463 are expressed in E. coli, purified by affinity-chromatografie and dialyzed against 1×PBS according to the art. Sequences of Recombinant Proteins: GST-STAT6 aa 677-847 protein, SEQ ID NO:1 His-tagged NCoA-1 aa 212-463, SEQ ID NO: 3 Antibodies: 1. Antibody: Penta-His, Quiagen (Cat. No. 34660) 2. […] Determine the optical density of each well within 15 minutes, using an ELISA reader set to […]. […]
500 ng of E. coli expressed and affinity purified GST-STAT6 TAD (amino acid, aa 677-847) is coated to 96 well ELISA-plates as indicated. After incubation with 250 ng of E. coli expressed, affinity purified His-NCoA-1 (aa 212-463), bound protein is detected by mouse anti-His-antibody and peroxidase coupled sheep anti-mouse-antibody as indicated. […] Conversion of peroxidase substrate O-phenylenediamine is measured at 492 nm. […]

T1 sequence (P70365 whole entry): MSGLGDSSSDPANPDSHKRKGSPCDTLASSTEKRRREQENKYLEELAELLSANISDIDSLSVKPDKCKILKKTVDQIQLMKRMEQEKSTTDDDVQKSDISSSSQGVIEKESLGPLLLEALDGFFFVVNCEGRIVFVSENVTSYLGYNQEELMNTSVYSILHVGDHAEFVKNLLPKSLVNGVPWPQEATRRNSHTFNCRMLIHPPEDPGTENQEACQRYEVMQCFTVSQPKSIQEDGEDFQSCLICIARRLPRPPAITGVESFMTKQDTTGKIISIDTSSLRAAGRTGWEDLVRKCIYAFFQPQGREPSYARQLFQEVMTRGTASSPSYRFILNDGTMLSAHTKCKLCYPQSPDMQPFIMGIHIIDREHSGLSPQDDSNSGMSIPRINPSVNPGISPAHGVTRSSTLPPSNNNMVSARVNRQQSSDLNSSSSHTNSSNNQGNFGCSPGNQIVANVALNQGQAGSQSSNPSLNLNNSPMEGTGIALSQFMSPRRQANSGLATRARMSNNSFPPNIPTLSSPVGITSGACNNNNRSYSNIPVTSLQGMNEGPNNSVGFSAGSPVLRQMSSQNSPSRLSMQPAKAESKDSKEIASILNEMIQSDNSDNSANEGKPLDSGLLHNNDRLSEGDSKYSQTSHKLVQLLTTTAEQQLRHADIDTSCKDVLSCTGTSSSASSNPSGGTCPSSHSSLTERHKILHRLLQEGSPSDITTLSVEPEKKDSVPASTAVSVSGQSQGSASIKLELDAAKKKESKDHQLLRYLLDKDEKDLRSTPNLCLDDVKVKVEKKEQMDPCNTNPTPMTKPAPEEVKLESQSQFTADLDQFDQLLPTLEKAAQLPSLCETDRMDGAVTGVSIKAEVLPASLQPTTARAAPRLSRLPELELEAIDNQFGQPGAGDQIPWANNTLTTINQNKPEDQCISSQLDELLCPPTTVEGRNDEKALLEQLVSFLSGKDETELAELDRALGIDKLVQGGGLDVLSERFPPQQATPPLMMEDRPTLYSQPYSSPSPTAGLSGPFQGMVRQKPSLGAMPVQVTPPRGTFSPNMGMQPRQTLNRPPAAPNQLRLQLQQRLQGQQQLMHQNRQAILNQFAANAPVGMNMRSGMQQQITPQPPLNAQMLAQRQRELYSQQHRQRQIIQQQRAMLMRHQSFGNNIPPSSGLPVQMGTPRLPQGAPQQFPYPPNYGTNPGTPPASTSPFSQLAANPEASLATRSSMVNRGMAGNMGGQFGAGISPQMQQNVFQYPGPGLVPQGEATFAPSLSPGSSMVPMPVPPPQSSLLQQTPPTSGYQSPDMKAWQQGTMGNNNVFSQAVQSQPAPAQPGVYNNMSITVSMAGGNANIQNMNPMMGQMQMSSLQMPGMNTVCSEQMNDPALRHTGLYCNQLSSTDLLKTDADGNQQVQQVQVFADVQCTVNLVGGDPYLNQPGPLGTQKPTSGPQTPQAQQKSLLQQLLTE
T2 sequence (P42226 with tags, fused parts or gaps): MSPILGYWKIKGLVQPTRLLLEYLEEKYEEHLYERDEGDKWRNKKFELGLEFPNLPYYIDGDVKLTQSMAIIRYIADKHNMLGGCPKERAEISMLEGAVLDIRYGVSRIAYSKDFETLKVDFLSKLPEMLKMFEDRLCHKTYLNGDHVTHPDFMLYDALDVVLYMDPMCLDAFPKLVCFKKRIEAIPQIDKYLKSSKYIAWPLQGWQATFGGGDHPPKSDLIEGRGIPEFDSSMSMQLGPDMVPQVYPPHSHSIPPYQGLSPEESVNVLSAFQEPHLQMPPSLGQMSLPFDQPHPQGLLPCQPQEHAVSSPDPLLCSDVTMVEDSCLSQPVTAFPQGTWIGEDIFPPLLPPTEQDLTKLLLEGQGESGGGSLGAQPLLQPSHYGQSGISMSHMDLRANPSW

Molecule | binding of GST-STAT6-TAD with NCoA-1 in presence of peptide [1] | Extinction 493 nm (GST-STAT6 (aa 677-847))
peptide 3: peptide derived from the STAT6 trans-activation domain, amino acid 830 to 847 (GQSGISMSHMDLRANPSW; UniProt P42226 830-847, looked up, fragment) | does not alter the binding capacity of GST-STAT6-TAD with NCoA-1 significantly | –
peptide 1: peptide derived from the STAT6 trans-activation domain, amino acid 794 to 814, SEQ ID NO: 6, contains LXXLL motif (LLPPTEQDLTKLLLEGQGESG; Part of SEQ ID 5; listed as Homo sapiens) | less binding | –
peptide 2: peptide derived from the STAT6 trans-activation domain, amino acid 817 to 830 (SLGAQPLLQPSHYG; UniProt P42226 817-830, looked up, fragment) | does not alter the binding capacity of GST-STAT6-TAD with NCoA-1 significantly | –
B1 | – | 0.795
